Target: T1, Env of SHIV-SF162P3, on virions (SHIV-SF162P3, env from HIV-1 SF162 …, UniProt P19550, strain)
T1 construct: HIV-1 SF162-derived envelope glycoprotein (gp120/gp41) of SHIV-SF162P3, as it stands on virus particles; source: virus stock
Test: infectious virus capture assay (plate based); antibody mixed with viral stock, immune complexes held on plates coated with anti-human IgG, captured infectious virus read with indicator cells (RLU)
Conditions: one partner purified

B1: 7B2 IgG1_AAA (antibody, V domains shown)
VH: QVQLVQSGGGVFKPGGSLRLSCEASGFTFTEYYMTWVRQAPGKGLEWLAYISKNGEYSKYSPSSNGRFTISRDNAKNSVFLQLDRLSADDTAVYYCARADGLTYFSELLQYIFDLWGQGARVTVSS
VL: DIVLAQSPDSLAVSPGERATIHCKSSQTLLYSSNNRHSIAWYQQRPGQPPKLLLYWASMRLSGVPDRFSGSGSGTDFTLTINNLQAEDVAIYYCHQYSSHPPTFGHGTRVELR
notes: variable region as in the heavy chain of m1 (PDB 4YDV, heavy chain); as the light chain of m1 (PDB 4YDV, light chain); IgG1 with the Fc changes S298A, E333A, K334A; also called 7B2_AAA; source: CHO cells (Catalent, Somerset, NJ), recombinant; copies: 2 + 2
B1: binds.

Source: article PMC4523205, “Human Non-neutralizing HIV-1 Envelope Monoclonal Antibodies Limit the Number of Founder Viruses during SHIV Mucosal Infection in Rhesus Macaques” (PLoS Pathogens, 2015)
